Assay results reported in the supplement of paper PMC9112550, “Optimization of the antimicrobial peptide Bac7 by deep mutational scanning” (BMC Biology, 2022).

Tested on: Escherichia coli TOP10
Experiment: shrunken log2 fold change of peptide-encoding DNA abundance (4.5 h post-induction vs induction); higher = less antimicrobial activity (less host growth inhibition)
Settings: time post-induction: 4.5 h; library: site-saturation at positions 5, 18, 19, 20
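Further: peptides expressed intracellularly from a pBAD plasmid library in pooled LB shake-flask culture, induced with 0.3% L-arabinose, DNA abundance read by NGS, three biological replicates, DESeq2 with apeglm shrinkage.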

Row | Sequence | shrunken log2 fold change
1 | RRIRCRPPRLPRPRPRPIDIPRP | 0.0768
2 | RRIRRRPPRLPRPRPRPPLQPRP | 0.682
3 | RRIRGRPPRLPRPRPRPVHYPRP | 0.109
4 | RRIRWRPPRLPRPRPRPVGHPRP | 0.243
5 | RRIRIRPPRLPRPRPRPIRHPRP | -0.0741
6 | RRIRLRPPRLPRPRPRPMHPPRP | -0.0318
7 | RRIRERPPRLPRPRPRPGPNPRP | -0.106
8 | RRIRERPPRLPRPRPRPGTFPRP | -0.378
9 | RRIRSRPPRLPRPRPRPFHEPRP | -0.263
10 | RRIRERPPRLPRPRPRPLRYPRP | -0.0652
11 | RRIRLRPPRLPRPRPRPGSVPRP | 0.0433
12 | RRIRARPPRLPRPRPRPHAAPRP | 0.635
13 | RRIRRRPPRLPRPRPRPDRRPRP | 0.108
14 | RRIRNRPPRLPRPRPRPNDQPRP | -0.309
15 | RRIRKRPPRLPRPRPRPMDAPRP | 0.415
16 | RRIRFRPPRLPRPRPRPRGWPRP | 0.9
17 | RRIRMRPPRLPRPRPRPSRLPRP | 0.19
18 | RRIRTRPPRLPRPRPRPCERPRP | -0.018
19 | RRIRTRPPRLPRPRPRPNQPPRP | 0.0619
20 | RRIRSRPPRLPRPRPRPSIRPRP | -0.41
21 | RRIRYRPPRLPRPRPRPSFFPRP | -0.665
22 | RRIRNRPPRLPRPRPRPGEYPRP | 0.0536
23 | RRIRMRPPRLPRPRPRPARSPRP | 1.05
24 | RRIRVRPPRLPRPRPRPLMTPRP | -0.24
25 | RRIRNRPPRLPRPRPRPGPAPRP | 0.627

Row | Sequence | shrunken log2 fold change
26 | RRIRARPPRLPRPRPRPPAAPRP | 1.12
27 | RRIRNRPPRLPRPRPRPTMEPRP | 0.274
28 | RRIRFRPPRLPRPRPRPFSMPRP | -0.232
29 | RRIRIRPPRLPRPRPRPITDPRP | -0.0192
30 | RRIRRRPPRLPRPRPRPMTFPRP | 0.164
31 | RRIRVRPPRLPRPRPRPHDMPRP | -0.0267
32 | RRIRGRPPRLPRPRPRPLWHPRP | 0.552
33 | RRIRWRPPRLPRPRPRPAFPPRP | 0.446
34 | RRIRHRPPRLPRPRPRPFENPRP | -0.0293
35 | RRIRLRPPRLPRPRPRPWCTPRP | 0.0254
36 | RRIRKRPPRLPRPRPRPYARPRP | -0.0148
37 | RRIRSRPPRLPRPRPRPRHEPRP | -0.0516
38 | RRIRNRPPRLPRPRPRPCCNPRP | -0.432
39 | RRIRGRPPRLPRPRPRPSLEPRP | 0.827
40 | RRIRFRPPRLPRPRPRPVDQPRP | 0.0138
41 | RRIRTRPPRLPRPRPRPRHYPRP | -0.162
42 | RRIRNRPPRLPRPRPRPMCQPRP | -0.0153
43 | RRIRPRPPRLPRPRPRPIFEPRP | 0.154
44 | RRIRLRPPRLPRPRPRPRMQPRP | -0.0604
45 | RRIRERPPRLPRPRPRPMNDPRP | -0.0199
46 | RRIRCRPPRLPRPRPRPWAAPRP | -0.0941
47 | RRIRYRPPRLPRPRPRPYQFPRP | -0.183
48 | RRIRDRPPRLPRPRPRPFKHPRP | -0.264
49 | RRIRMRPPRLPRPRPRPESGPRP | 0.908
50 | RRIRIRPPRLPRPRPRPCYLPRP | -0.0394

Row | Sequence | shrunken log2 fold change
51 | RRIRKRPPRLPRPRPRPSSCPRP | 0.31
52 | RRIRERPPRLPRPRPRPHCSPRP | -0.279
53 | RRIRGRPPRLPRPRPRPYEFPRP | -0.0878
54 | RRIRMRPPRLPRPRPRPDGNPRP | 0.0626
55 | RRIRQRPPRLPRPRPRPEEHPRP | -0.0135
56 | RRIRHRPPRLPRPRPRPSRYPRP | -1
57 | RRIRDRPPRLPRPRPRPAMLPRP | 0.278
58 | RRIRARPPRLPRPRPRPGYTPRP | 0.324
59 | RRIRRRPPRLPRPRPRPSWCPRP | -0.154
60 | RRIRQRPPRLPRPRPRPFKFPRP | -0.00873
61 | RRIRDRPPRLPRPRPRPKYVPRP | 0.13
62 | RRIRIRPPRLPRPRPRPQVQPRP | -0.195
63 | RRIRWRPPRLPRPRPRPGDPPRP | 1.14
64 | RRIRPRPPRLPRPRPRPQQVPRP | 0.14
65 | RRIRPRPPRLPRPRPRPTSRPRP | -0.0592
66 | RRIRMRPPRLPRPRPRPSCGPRP | 0.687
67 | RRIRQRPPRLPRPRPRPGGIPRP | 0.0484
68 | RRIRMRPPRLPRPRPRPVLHPRP | -0.309
69 | RRIRWRPPRLPRPRPRPLGRPRP | 0.424
70 | RRIRYRPPRLPRPRPRPGFHPRP | -0.564
71 | RRIRDRPPRLPRPRPRPRKNPRP | 0.244
72 | RRIRVRPPRLPRPRPRPDHTPRP | -0.428
73 | RRIRSRPPRLPRPRPRPVVCPRP | -0.0186
74 | RRIRLRPPRLPRPRPRPAMMPRP | -0.221
75 | RRIRPRPPRLPRPRPRPIRPPRP | 0.184

Row | Sequence | shrunken log2 fold change
76 | RRIRIRPPRLPRPRPRPFPGPRP | -0.155
77 | RRIRQRPPRLPRPRPRPGMNPRP | 0.0205
78 | RRIRMRPPRLPRPRPRPVAGPRP | 1.31
79 | RRIRRRPPRLPRPRPRPARPPRP | 0.703
80 | RRIRPRPPRLPRPRPRPWCQPRP | 0.0224
81 | RRIRLRPPRLPRPRPRPPWEPRP | 0.192
82 | RRIRQRPPRLPRPRPRPVVKPRP | -0.031
83 | RRIRERPPRLPRPRPRPYGWPRP | -0.135
84 | RRIRHRPPRLPRPRPRPEDDPRP | 0.141
85 | RRIRDRPPRLPRPRPRPKRSPRP | -0.0252
86 | RRIRVRPPRLPRPRPRPKSHPRP | 1.35
87 | RRIRGRPPRLPRPRPRPACIPRP | 0.666
88 | RRIRRRPPRLPRPRPRPIQYPRP | -0.00028
89 | RRIRARPPRLPRPRPRPKHVPRP | 0.0861
90 | RRIRLRPPRLPRPRPRPGWHPRP | 0.13
91 | RRIRGRPPRLPRPRPRPVDSPRP | 0.0597
92 | RRIRYRPPRLPRPRPRPRCNPRP | -0.552
93 | RRIRSRPPRLPRPRPRPSQPPRP | -0.14
94 | RRIRHRPPRLPRPRPRPYFVPRP | -0.84
95 | RRIRRRPPRLPRPRPRPQNYPRP | -0.304
96 | RRIRHRPPRLPRPRPRPLWEPRP | 0.0119
97 | RRIRHRPPRLPRPRPRPKARPRP | -0.00317
98 | RRIRGRPPRLPRPRPRPFLKPRP | 0.186
99 | RRIRSRPPRLPRPRPRPQKWPRP | -0.0746
100 | RRIRYRPPRLPRPRPRPSRVPRP | -0.115

Row | Sequence | shrunken log2 fold change
101 | RRIRLRPPRLPRPRPRPDKMPRP | -0.121
102 | RRIRYRPPRLPRPRPRPKVGPRP | 0.0316
103 | RRIRGRPPRLPRPRPRPSAIPRP | 1.3
104 | RRIRQRPPRLPRPRPRPHSQPRP | 0.0419
105 | RRIRMRPPRLPRPRPRPLYCPRP | -0.396
106 | RRIRIRPPRLPRPRPRPDIMPRP | -0.121
107 | RRIRNRPPRLPRPRPRPFAGPRP | 0.0411
108 | RRIRNRPPRLPRPRPRPDMTPRP | -0.287
109 | RRIRDRPPRLPRPRPRPTVFPRP | 0.708
110 | RRIRNRPPRLPRPRPRPITRPRP | -0.0765
111 | RRIRFRPPRLPRPRPRPFTTPRP | -0.445
112 | RRIRQRPPRLPRPRPRPSWQPRP | -0.0449
113 | RRIRPRPPRLPRPRPRPNMIPRP | -0.531
114 | RRIRIRPPRLPRPRPRPVTSPRP | -0.0328
115 | RRIRNRPPRLPRPRPRPASLPRP | 0.0991
116 | RRIRGRPPRLPRPRPRPASAPRP | 0.818
117 | RRIRLRPPRLPRPRPRPPGRPRP | 0.66
118 | RRIRNRPPRLPRPRPRPWRTPRP | -0.323
119 | RRIRARPPRLPRPRPRPTMKPRP | 0.296
120 | RRIRIRPPRLPRPRPRPYWVPRP | 0.0603
121 | RRIRLRPPRLPRPRPRPRWPPRP | 0.716
122 | RRIRCRPPRLPRPRPRPAQEPRP | 0.101
123 | RRIRNRPPRLPRPRPRPKGNPRP | -0.00941
124 | RRIRPRPPRLPRPRPRPTTHPRP | 0.0944
125 | RRIRMRPPRLPRPRPRPNYHPRP | -0.525

Row | Sequence | shrunken log2 fold change
126 | RRIRWRPPRLPRPRPRPDNQPRP | -0.265
127 | RRIRARPPRLPRPRPRPHRSPRP | -0.0655
128 | RRIRARPPRLPRPRPRPCEYPRP | -0.133
129 | RRIRNRPPRLPRPRPRPVRLPRP | 0.0814
130 | RRIRCRPPRLPRPRPRPAYHPRP | -0.436
131 | RRIRVRPPRLPRPRPRPTQCPRP | -0.0227
132 | RRIRPRPPRLPRPRPRPQNAPRP | -0.0677
133 | RRIRVRPPRLPRPRPRPIYRPRP | -0.491
134 | RRIRIRPPRLPRPRPRPECPPRP | -0.0846
135 | RRIRCRPPRLPRPRPRPIIRPRP | -0.18
136 | RRIRQRPPRLPRPRPRPDGWPRP | 0.228
137 | RRIRRRPPRLPRPRPRPMFEPRP | 0.266
138 | RRIRRRPPRLPRPRPRPLNVPRP | -0.0701
139 | RRIRPRPPRLPRPRPRPFYEPRP | -0.105
140 | RRIRRRPPRLPRPRPRPNPFPRP | 0.125
141 | RRIRTRPPRLPRPRPRPTDDPRP | -0.078
142 | RRIRSRPPRLPRPRPRPGHEPRP | 0.101
143 | RRIRCRPPRLPRPRPRPPLHPRP | 0.135
144 | RRIRRRPPRLPRPRPRPWGVPRP | 0.405
145 | RRIRDRPPRLPRPRPRPAPTPRP | 0.684
146 | RRIRGRPPRLPRPRPRPTTFPRP | 0.608
147 | RRIRARPPRLPRPRPRPCIAPRP | -0.0146
148 | RRIRERPPRLPRPRPRPEEGPRP | -0.007
149 | RRIRHRPPRLPRPRPRPNMDPRP | -0.173
150 | RRIRDRPPRLPRPRPRPKRFPRP | -0.017
